# Patent publication US7235626B1, “Structured peptide scaffold for displaying turn libraries on phage” (Genentech, Inc., priority 1999, dated 2007)
# Positions of bridges follow the written chain, without caps; N, C: chain ends. No end group written: not given here.
# How the values were obtained:
# [1] = 1H NMR analysis of hairpin structure in solution; assay type: physicochemical; conditions: for structure in solution: NMR, ~2 mM peptide, pH 3.5
# Method: NMR Spectroscopy. […] All spectra were acquired on a Bruker DRX-500 or a Varian Unity-400 spectrometer at 15° C. 2QF-COSY, TOCSY and ROESY spectra were acquired as described (Cavanagh et al. (1995) Protein NMR Spectroscopy, Principles and Practices (Academic Press, San Diego) with gradient coherence selection (van Zijl et al. (1995) J. Magn. Reson. 113A:265-270), or excitation sculpting (Hwang & Shaka, (1995) J. Magn. Reson. 112A, 275-279.) for water suppression. Proton resonances were assigned by standard methods (Wüthrich (1986) NMR of Proteins and Nucleic Acids (John Wiley and Sons, New York). 3JH^N-H^α were obtained by fitting Lorentzian lines to the antiphase doublets of HN—H^α peaks in 2QF-COSY spectra processed to high digital resolution in F2. ^3JH^N-H^α were extracted from COSY-35 spectra acquired on D2O solutions of the peptides. Distance and dihedral angle restraints were generated as described (Skelton et al. (1994) Biochemistry 33:13581-13592). 100 initial structures were calculated using the hybrid distance geometry/simulated annealing program DGII (Havel et al. (1991) Prog. Biophys. Mol. Biol. 56:43-78.); 80 of these were further refined by restrained molecular dynamics using the AMBER all-atom forcefield implemented in DISCOVER as described previously (Skelton et al. (1994) Biochemistry 33:13581-13592.). […]
# Structure Calculation. Structures were calculated with 78 ROE-derived distance restraints (10 medium- and 28 long-range restraints; upper bounds of 5.4, 4.3, 3.4 or 3.0 Å) and 12 dihedral angle restraints. […]
# NMR Analysis. […] Spectra were acquired and analyzed as described above. The structure of cd2 was calculated from 84 (including 13 medium- and 23 long-range) ROE-derived distance restraints and 13 dihedral angle restraints. […]
# Analysis of Sidechain Rotamers. […] Given the large number of backbone-backbone distance and Φ dihedral angle restraints, the structures calculated for bhpw and cd2 do accurately represent the solution conformation of these peptides, except in the over determination of some side chain orientations.
# [2] = Cysteine effective concentration (Ceff) measurement, thiol-disulfide equilibrium relative to glutathione; assay type: physicochemical
# Method: Cysteine Effective Concentration Measurements. Glutathione stock solutions were prepared by mixing 3 volumes of 0.2 M reduced glutathione (GSH) with 1 volume of 0.1 M oxidized glutatione (GSSG). Aliquots were stored at −80° C. and were stable for several months; use of a single batch eliminated any error in ΔΔG values that might arise from variability of total glutathione concentration. Thiol-disulfide equilibria were established by mixing 50 μL peptide stock (approximately 3 mM in water) with 50 μL glutathione stock, deoxygenating the acidic solution with vacuum/argon cycles from a Firestone valve, then adding 300 μL of deoxygenated buffer by syringe (0.2 M tris, pH 8.0; 1 mM EDTA; 67 mM tris base to titrate glutathione), followed by further deoxygenation of the mixture. The final pH of all reaction mixtures was 8.10±0.05. Solutions were stirred under argon and maintained at 20° C. in a water bath. After 1.5 h, successive aliquots (100 μL) were removed with a gastight syringe, immediately quenched by discharge into 400 μL of 3.1 mM HCl, and analyzed by HPLC with a minimum of delay. Ceff values were calculated from the molar ratios of the reduced and oxidized forms of peptide and glutathione (peak area ratios corrected for absorbance differences measured by HPLC), assuming 0.025 M total glutathione monomer (i.e., neglecting the minor amount (<1%) of glutathione present in mixed disulfides with peptide): Ceff=([peptideox]/[peptidered])×([GSH]^2/[GSSG]) [GSH]+2[GSSG]=0.025 M [GSSG]=0.025 M/{2+3.26 (GSH peak area/GSSG peak area)} [peptideox]/[peptidered]=equilibrium peak area ratio/absorbance ratio
# Two or three samples from each reaction mixture were analyzed; there were no shifts in populations with time, and calculated Ceff values typically varied by less than 5% (equivalent to 30 cal/mol uncertainty in ΔΔG).
# [3] = Circular dichroism spectra of peptides; assay type: physicochemical; conditions: 10° C.; 20 μM peptide in 20 mM potassium phosphate, pH 7.0
# Method: Terminal serine and lysine residues were added to improve the solubility of some variants of the CD4 peptide, which are otherwise uncharged. A similar modification was made to bhpW as a control. Non-turn residues that differ between bhpW and the CD4 loop are underlined. Coelution of reduced and oxidized peptides prevented measurement of Ceff for the T2, N3 variant of the CD4 peptide. Circular dichroism spectra were acquired at 10° C. with an Aviv Instruments, Inc. Model 202 spectrophotometer; peptide concentrations were 20 μM in 20 mM potassium phosphate, pH 7.0.
# CD4 = conditions: normal CD4 interactions and CD4-mediated cell entry by HIV; cited from earlier work
# [4] = Table 2, bhpW and CD4 C′-C″ loop peptides, pH 8.10, 20° C.
Substance,"Ceff [2, 4]",[θ]215 [3],further results
"Ac-CGNQGSFLTC-NH2 (disulfide 1-10 (inferred)) [cd1, disulfide-constrained peptide based on native CD4 hairpin residues 38-45]",,,structure in solution [1]: essentially unstructured
"Ac-CTWEGNKLTC-NH2 (disulfide 1-10 (inferred)) [bhpW, tryptophan analog of the model β-hairpin peptide bhp]",210 ± 4 mM,"−19,800 deg cm^2 dmol^−1","hairpin conformation population ([1]; 15° C., estimate): > 80%; Ceff ([2]; Table 1, bhp peptides varied at residue 3, pH 8.10, 20° C.): 210 ± 4 mM"
"Ac-CTWQGSFLTC-NH2 (disulfide 1-10 (inferred)) [cd2, cd1 with substitutions G2T and N3W]",,"−15,800 deg cm^2 dmol^−1",structure in solution [1]: well-ordered
"FCYICEVEDQCY (also: cyclic, type and places not given here) [cyclic peptide from loops of domain 1 of human CD4]",,,antagonism of CD4 interactions (CD4): antagonize
SCGNQGSFLTCK-NH2 (disulfide 2-11 (inferred)) [cd1a],45 ± 4 mM,"−1,500 deg cm^2 dmol^−1",
SCGWQGSFLTCK-NH2 (disulfide 2-11 (inferred)),48 ± 0 mM,"−6,100 deg cm^2 dmol^−1",
SCTWEGNKLTCK-NH2 (disulfide 2-11 (inferred)) [bhpW with terminal serine and lysine added as a control],273 ± 2 mM,"−17,400 deg cm^2 dmol^−1",
SCTWQGSFLTCK-NH2 (disulfide 2-11 (inferred)) [cd2a],120 ± 0 mM,"−14,000 deg cm^2 dmol^−1",
